{
  "source": "paper PMC4627070",
  "data": [
    {"target": "T1, gp32 (gene 32 protein, ssDNA-binding protein) (bacteriophage T4, UniProt P03695 1-301)", "T1 sequence": "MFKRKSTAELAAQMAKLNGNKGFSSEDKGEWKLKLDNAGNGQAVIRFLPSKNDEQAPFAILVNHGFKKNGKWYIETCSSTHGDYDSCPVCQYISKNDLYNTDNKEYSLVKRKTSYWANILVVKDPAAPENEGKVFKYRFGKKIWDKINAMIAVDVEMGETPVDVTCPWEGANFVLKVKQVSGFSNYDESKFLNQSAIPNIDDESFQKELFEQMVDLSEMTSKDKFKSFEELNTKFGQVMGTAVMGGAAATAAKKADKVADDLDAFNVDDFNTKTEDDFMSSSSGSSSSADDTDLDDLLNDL", "experiment": "fluorescence titration", "units": {"Kd": "µM"}, "values": [
      {"binder": "TAATTTTT (ssDNA, 2-aminopurine at positions 2,3 (written as A))", "note": "[8P2,3]", "Kd": "3.5 ± 0.4"},
      {"binder": "TTTAATTT (ssDNA, 2-aminopurine at positions 4,5 (written as A))", "note": "[8P4,5]", "Kd": "4.2 ± 0.4"},
      {"binder": "TTTTTAAT (ssDNA, 2-aminopurine at positions 6,7 (written as A))", "note": "[8P6,7]", "Kd": "10.3 ± 1"},
      {"binder": "AAAAAAAA (ssDNA, 2-aminopurine at positions 2,3 (written as A))", "note": "[8A2,3]", "Kd": "4.1 ± 0.4"},
      {"binder": "AAAAAAAA (ssDNA, 2-aminopurine at positions 6,7 (written as A))", "note": "[8A6,7]", "Kd": "3.2 ± 0.3"}
    ]}
  ]
}
